# T1: Recombinant human CTLA4/His (human, UniProt P16410 36-162, limits assumed)
# T1 construct: not shown: His tag
# T1 sequence (looked up): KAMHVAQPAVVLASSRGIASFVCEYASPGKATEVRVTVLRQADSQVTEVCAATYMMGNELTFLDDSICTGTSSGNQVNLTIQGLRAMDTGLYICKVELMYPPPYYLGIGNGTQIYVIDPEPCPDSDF
# T2: human CTLA4 (human, UniProt P16410 36-161, limits assumed)
# T2 sequence (looked up): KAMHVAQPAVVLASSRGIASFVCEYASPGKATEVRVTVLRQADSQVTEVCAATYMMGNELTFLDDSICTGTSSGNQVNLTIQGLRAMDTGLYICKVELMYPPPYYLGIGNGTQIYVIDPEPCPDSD
# B1: F7 (antibody, V domains shown)
# VH: QVQLVQSGAEVKKPGASVKVSCKASGYAFDGHYMHWVRQAPGQRLEWMGWVDPHSGATNYAQNFQGGVTMTRDTSINTVYMELSSLKSDDTAVYYCARDFYDTSAKSGAFDIWGQGTMVTVSS
# VL: AIQLTQSPSSVSASVGDRVTITCRASQGISSWLAWYQQKPGKAPKLLIYAASSLQSGVPSRFSGSGSGTDFTLTISSLQPEDFATYYCQQVNSFPWAFGQGTKVEIK
# notes: captured by anti-human Fc antibody in SPR, so it has a human Fc; also called anti-CTLA4 antibody F7
# B2: E8 (antibody, V domains shown)
# VH: QVQLVQSGAEVKKPGASVKVSCEASGYTFTNYYIHWLRQAPGQGLEWMGIINPSGGSTTYAQKFQGRITMTRDTSTNTLYMELSSLRSEDTAIYYCARRDCRGPSCYFAYWGQGTTVTVSS
# VL: DIVMTQSPSSLSASVGDRVTITCRASQSISSYLNWYQQKPGKAPKLLIYAASSLQSGVPPRFSGSGSGTEFTLTISSLQPEDFATYYCQQANSFPPTFGQGTKVDIK
# notes: also called antibody E8
# B3: G3 (antibody, V domains shown)
# VH: QVQLVQSGAEVKKPGASVKVSCKASGYTFTSYYMHWVRQAPGQGLEWMGIINPSGGSTSYAQKFQGRVTMTRDTSTSTVYMELSGLRSEDTAVYYCARYEHDYDSSKATTGYFDYWGQGTLVTVSS
# VL: AIQLTQSPDSLAVSLGERATINCKSSQSILYRSNNKNYLAWYQQKPGQPPKLLIYWASTRESGVPDRFSGSGSGTDFTLTISSLQPEDFATYYCQQADRFPITFGQGTRLEIK
# B4: A12 (antibody, V domains shown)
# VH: QVQLVESGGGLVQPGGSLRLSCAASGFTFSNYAMNWVRQTPGKGLEWVSVNYNDGFGTFNGYYADSVKGRFIISRDNSKNTLYLQMNSLRVDDTAVYYCARDSGVAGPYYFDNWGQGTLVTVSS
# VL: AIQLTQSPSTLSASVGDRVTITCRASQSISSWLAWYQQKPGKAPKLLIYKASSLESGVPSRFSGSGSGTEFTLTISSLQPDDFATYYCQQYNSSPLTFGGGTKLEIK
# B5: G12 (antibody, V domains shown)
# VH: EVQLVESGAEVKKPGASVKVSCKASGYTFTSYGISWVRQAPGQGLEWMGWISAYNGNTNYAQKLQGRVTMTTDTSTSTAYMELRSLRSDDTAVYYCARGPGILTGYYFDYWGQGTLVTVSS
# VL: EIVMTQSPSSLSASVGDRVTITCRASQGINYHLAWYQQKPGKAPKLLIYAASALQSGVPSRFSGTGSGTEFTLTISSLQPEDFATYYCQQFNTYPLTFGGGTKLEIK
# B6: A7 (antibody, V domains shown)
# VH: QMQLVQSGAEVKKPGASVKVSCKASGGTFSSYAISWVRQAPGQGLEWMGGIIPIFGTANYAQKFQGRVTITADESTSTAYMELSSLRSEDTAVYYCAREIGSYSSGWYRAFDIWGQGTMVTVSS
# VL: DIVMTQSPSTLSASVGDRVTITCRASQSISSWLAWYQQKPGKAPQLLIYKASNLQSGVPSRFSGSGSVTEFSLTISSLLPEDFATYYCQQYSRPPWTFGQGTKVEIK
# B7: F6 (antibody, V domains shown)
# VH: EVQLVESGGGFVKPGRSLRLSCTASGFTFGDYGMSWFRQAPGKGLEWVGFIRSKAYGGTTDYAASVKGRFTISRDDSKSFAYLQMNSLKTEDTAVYYCTRGHYSASIWGQGTLVTVSS
# VL: SYELMQPPSVSVAPGKTARITCGGNNIGSKSVHWYQQRPDQAPVLVIYSDNDRPSGIPERFSGSSSGHTATLTISRVEAGDEADYFCQVWDSNKNEWVFGGGTKLTVL
# B8: F5 (antibody, V domains shown)
# VH: EVQLVQSGTEVKKPGSSVKVSCKASGGSFSNYAISWVRQAPGQGLEWMGRIIPILGIANYAQKFQGRVTITADKSTSTAYMELSSLGSEDTAVYYCARESGSYLDPWGQGTLVTVSS
# VL: DIVMTQSPDSLAVSLGERATINCKSSQSVLYSPNNKNYLTWYQQKPGQPPKLLMYWASTRESGVPDRFSASGSGTDFTLTISSLQAEDVAVYYCQQSRSGPYTFGQGTKVEIK
# B9: G2 (antibody, V domains shown)
# VH: QVQLVESGGGLIQPGGSLRLSCAASGFTVSSAYMSWVRQAPGKGLEWVSVIYRGGTTYYADSVKGRFTISRDNSKNTLYLQMNSLRAEDTAVYYCRGEGGNSGDYFDYWGQGTTVTVSS
# VL: NFMLTQPASVSGSPGQSITISCTGTSSDVGGYNFVSWYQQHPGKAPKLMIYDVSKRPSGVSNRFSGSKSGNTASLTISGLQAEDEADYYCSSYTSTNTLDVLFGGGTKLTVL
# B10: F3 (antibody, V domains shown)
# VH: QMQLVQSGAEVKKPGASVTVSCKASGYTFTNSYIHWVRQAPGQGLEWVGRLIPSSGYTIFSQKLQGRVSMTRDTSMSTHYLTLSHLRPEDTAVYYCATDGGNYNLDFWGQGTLVTVSS
# VL: QPVLTQPPSVSGSPGQSVTISCTGTSSDVGGYNYVSWYQQHPGKAPKLMIYDVSSRPSGVSNRFSGSKSDNTASLTISGLQAEDEADYYCSSYTSSSPYVFGTGTKVTVL
# B11: A4 (antibody, V domains shown)
# VH: QVQLVESGGGLIQPGGSLRLSCAASGFSVSNNYMNWVRQAPGKGLEWVSVIYRGGSTYYADSVKGRFTISRDNSKNTLYLQMNSLRTEDTAVYYCLREGGTSGDYVNDWGQGTLVTVSS
# VL: QSVVTQPPSVSGAPGQRVTISCTGSSSNIGAGYDVHWYQQLPGTAPKLLIYGNKNRPSGVPDRFSGSKSGTSASLAITGLQAEDEADYYCQAYDSSLSVVFGGGTKLTVL
# B12: A2 (antibody, V domains shown)
# VH: QMQLVQSGAEVKMPGSSVRISCKASGGSFTTHFINWVRQAPGQGLEWMGWMNPNTGNTGYAERFQGRVTLTRDTSISTAYLELSSLRSDDTAVYYCARNPAESGRFDPWGQGTLVTVSS
# VL: QSALTQPPSASGSPGRSVTISCTGTSNNVGGYNYVSWYQQHPGKAPKLMIYEVTKRPSGVPDRFSGSKSGNTASLTVSGLQAEDEADYYCGTWDGSLNAYVFGTGTKVTVL
# B13: C2 (antibody, V domains shown)
# VH: QVQLVQSGAEVKKPGASVKVSCKASGYTFTTHYIHWVRQAPGQGLEWMAIINPNDGVKVYAQKFKGRLTVASDTSATTVYMDLSGLTSDDTAVYYCGREQHGGHHDYWGQGTLVTVSS
# VL: QAGLTQPASVSGSPGQSITISCTGTSSDVGGYNYVSWYQQHPGKAPKLMIYDVTNRPSGVSNRFSGSKSGNTASLTISGLQAEDEADYYCKSYTSSSTPYVFGTGTKVTVL
# B14: D5 (antibody, V domains shown)
# VH: QVQLQQSGPGLVKPSQTLSLTCAISGDSVSSNSAAWNWIRQSPSRGLEWLGRTYYRSKWYNDYAVSVKSRITINPDTSKNQFSLQLNSVTPEDTAVYYCAMHSGYRNYGMDVWGQGTTVTVSS
# VL: QSVVTQPPSVSGAPGQRVTISCTGSSSNIGAGYDVHWYQQLPGTAPKLLIYGNSNRPSGVPDRFSGSKSGTSASLAITGLQAEDEADYYCQSYDSSLSGAVVFGGGTKLTVL
# B15: G1 (antibody, V domains shown)
# VH: QVQLVQSGAEVKKPGASVKVSCKTSGNTFTNYYMHWVRQAPGQGLEWMGIMNPSGGSTSYAQKFQGRVTMTRDKSTSTVYMELSSLTSEDTAVYYCARDLFPHIYGNYYGMDIWGQGTTVTVSS
# VL: QSVVTQPPSVSAAPGQNVTISCSGSSSNIGNNYVSWYQQLPGTAPKLLIYDNNRRASGIPDRFSGSKSGTSATLGITGLQTGDEADYYCGTWDRSLTTDWVFGGGTKLTVL
# B16: F1 (antibody, V domains shown)
# VH: EVQLVQSGAEVKKPGASVKVSCKASGYTFTSYGISWVRQAPGQGLEWMGWISAYNGNTNYAQKLQGRVTMTTDTSTSTAYMELRSLRSDDTAVYYCARVGYGGYFDYWGQGTLVTVSS
# VL: SYELMQPPSVSKGLRQTATLTCTGNSNNVGNQGADWLQQHQGHPPKLLSYRNNDRPSGISERFSASRSGSTASLTITGLQPEDEADYYCLAWDSSLSAWVFGGGTKVTVL
# B17: B6 (antibody, V domains shown)
# VH: QVQLVQSGAEVKKPGATVKVSCTASGFPFRNYAMHWVRQAPGQRLEWLGWIDAGNGNTKYSQTFHGRVTITRDTSASTAYMELSSLRSEDTAVYYCARDLLWPYLVTSGGAFDIWGQGTMVTVSS
# VL: SYELMQPPSTSGTPGQRVTISCSGSSSNIGSHIVNWYQQFPGAAPQLLIYNDDQRPSGVPDRFSGSKSGASASLAISGLQSEDEAHYYCSAWDDILKGPVFGGGTKLTVL
# B18: G5 (antibody, V domains shown)
# VH: QVQLQQSGPGLVKPSQTLSLTCAISGDSVSSNSAAWNWIRQSPSRGLEWLGRTYYRSKWYNDYAVSVKSRITINPDTSKNQFSLQLNSVTPEDTAVYYCARDRWELPFDYWGQGTTVTVSS
# VL: QSVVTQPPSVSAASGQKVIISCSGSNSNIVNNYVSWYQQLPGAAPKVLIYANNKRPSGIPDRFSGSKSGTSAFLAITGLQTGDEADYYCGTWDGSLDVDVFGGGTKLTVL
# Molecular target: T1, Recombinant human CTLA4/His
# Test: SPR (Biacore), antibody captured on anti-human Fc, CTLA4/His as analyte, 1:1 model
# Procedure: This example illustrates binding affinities of exemplary anti-CTLA4 antibodies disclosed herein. Affinities were determined using surface plasmon resonance (Biacore). Briefly, Anti-human Fc antibody (GE, BR-1008-39) was immobilized on CM5 sensor chip to approximately 1000 RU using standard NHS/EDC coupling methodology. Antibodies (about 10 μg/ml) were captured for 60 s at a flow rate 10 μl/min Recombinant human CTLA4/His was serially diluted in running buffer (HBS-EP). All measurements were conducted with a flow rate of 30 μL/min Surfaces were regenerated with 3M MgCl₂ for 60 s. A 1:1 (Langmuir) binding model was used to fit the data.
Kd [nM],koff [s⁻¹],kon [M⁻¹ s⁻¹],Binder
0.738,0.000217,294000,B1

# Molecular target: T2, human CTLA4
# Test: SPR (BiaCore)
Kd [nM],koff [s⁻¹],kon [M⁻¹ s⁻¹],Binder
58.9,0.00488,82900,B2

# Molecular target: T2, human CTLA4
# Test: selection of human antibodies; method not described
row,binding result,Binder
1,binds,B3
2,binds,B4
3,binds,B5
4,binds,B6
5,binds,B7
6,binds,B8
7,binds,B9
8,binds,B10
9,binds,B11
10,binds,B12
11,binds,B13
12,binds,B14
13,binds,B15
14,binds,B16
15,binds,B17
16,binds,B18

# Source: patent US20160237154A1 (SORRENTO THERAPEUTICS, published 2016)
